Data from patent US20240116985A1 (published 2024).
Starred links: 1 amine or outer side, 2 acyl side, 3 side chain; linkers in the order of their positions; H or OH if unused. Positions of bridges follow the written chain, without caps; N, C: chain ends. Non-standard residues stand in square brackets, D forms with d. Primed or numbered codes have the meaning given here. No end group written: not given here. PyrS2″ = (S)-3-amino-1-((pent-4-en-1-yloxy)carbonyl)pyrrolidine-3-carboxylic acid (stapling residue), C=CCCCOC(=O)N1CC[C@@](N[*:1])(C(=O)[*:2])C1; B5(4) = 2,2-bis(4-pentenyl)glycine = 2-amino-2-(pent-4-en-1-yl)hept-6-enoic acid (stitching residue), C=CCCCC(CCCC=C)(N[*:1])C(=O)[*:2]; PyrS2 = (S)-3-amino-1-((pent-4-en-1-yloxy)carbonyl)pyrrolidine-3-carboxylic acid, C=CCCCOC(=O)N1CC[C@@](N[*:1])(C(=O)[*:2])C1; B5(13) = 2-amino-2-(pent-4-en-1-yl)hept-6-enoic acid (two alkene chains), C=CCCCC(CCCC=C)(N[*:1])C(=O)[*:2]; B5(3) = 2,2-bis(4-pentenyl)glycine (stitching residue), C=CCCCC(CCCC=C)(N[*:1])C(=O)[*:2]; B5 = 2-amino-2-(pent-4-en-1-yl)hept-6-enoic acid, C=CCCCC(CCCC=C)(N[*:1])C(=O)[*:2]; Phe(2-CF3) = N[C@@H](Cc1ccccc1C(F)(F)F)C(=O)O; Phe(2-CONH2) = NC(=O)c1ccccc1C[C@H](N)C(=O)O; Phe(2-Br) = N[C@@H](Cc1ccccc1Br)C(=O)O; Phe(2-Cl) = N[C@@H](Cc1ccccc1Cl)C(=O)O; Phe(2-OMe) = COc1ccccc1C[C@H](N)C(=O)O; Phe(2-F) = N[C@@H](Cc1ccccc1F)C(=O)O; Phe(2-Me) = Cc1ccccc1C[C@H](N)C(=O)O; Bta = N[C@@H](Cc1csc2ccccc12)C(=O)O; Lys(iPr) = CC(C)NCCCC[C@H](N)C(=O)O; αAllylPro = C=CC[C@@]1(C(=O)O)CCCN1; tBuAla = CC(C)(C)C[C@H](N)C(=O)O; 2Thi = N[C@@H](Cc1cccs1)C(=O)O; 3Thi = N[C@@H](Cc1ccsc1)C(=O)O; Cha = N[C@@H](CC1CCCCC1)C(=O)O; Thr(ol) = C[C@@H](O)[C@H](N)CO; hLeu = CC(C)CC[C@H](N)C(=O)O

T1: B-cat-Halo (UniProt P35222 1-781)
T1 sequence (looked up): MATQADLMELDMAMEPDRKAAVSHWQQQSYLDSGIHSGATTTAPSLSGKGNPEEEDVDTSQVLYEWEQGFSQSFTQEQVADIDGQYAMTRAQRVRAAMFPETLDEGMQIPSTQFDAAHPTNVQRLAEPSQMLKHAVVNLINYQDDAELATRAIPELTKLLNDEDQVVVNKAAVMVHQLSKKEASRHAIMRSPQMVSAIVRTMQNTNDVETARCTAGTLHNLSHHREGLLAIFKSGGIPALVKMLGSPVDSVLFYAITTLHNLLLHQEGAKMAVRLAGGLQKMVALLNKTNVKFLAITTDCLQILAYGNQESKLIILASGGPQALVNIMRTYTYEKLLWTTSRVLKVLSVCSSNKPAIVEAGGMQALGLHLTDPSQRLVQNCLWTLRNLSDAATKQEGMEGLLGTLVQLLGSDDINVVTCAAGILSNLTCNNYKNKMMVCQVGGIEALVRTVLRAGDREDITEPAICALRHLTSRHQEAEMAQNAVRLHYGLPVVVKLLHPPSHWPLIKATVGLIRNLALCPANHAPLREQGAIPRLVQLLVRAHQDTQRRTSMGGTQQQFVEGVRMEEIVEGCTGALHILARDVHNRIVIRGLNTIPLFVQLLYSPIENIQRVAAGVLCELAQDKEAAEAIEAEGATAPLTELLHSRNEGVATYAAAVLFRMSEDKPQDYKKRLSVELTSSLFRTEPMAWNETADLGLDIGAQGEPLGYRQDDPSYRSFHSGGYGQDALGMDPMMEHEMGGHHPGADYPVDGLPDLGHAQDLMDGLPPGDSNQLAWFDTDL

T2: B-cat-Halo (UniProt P35222 1-781)
T2 sequence (looked up): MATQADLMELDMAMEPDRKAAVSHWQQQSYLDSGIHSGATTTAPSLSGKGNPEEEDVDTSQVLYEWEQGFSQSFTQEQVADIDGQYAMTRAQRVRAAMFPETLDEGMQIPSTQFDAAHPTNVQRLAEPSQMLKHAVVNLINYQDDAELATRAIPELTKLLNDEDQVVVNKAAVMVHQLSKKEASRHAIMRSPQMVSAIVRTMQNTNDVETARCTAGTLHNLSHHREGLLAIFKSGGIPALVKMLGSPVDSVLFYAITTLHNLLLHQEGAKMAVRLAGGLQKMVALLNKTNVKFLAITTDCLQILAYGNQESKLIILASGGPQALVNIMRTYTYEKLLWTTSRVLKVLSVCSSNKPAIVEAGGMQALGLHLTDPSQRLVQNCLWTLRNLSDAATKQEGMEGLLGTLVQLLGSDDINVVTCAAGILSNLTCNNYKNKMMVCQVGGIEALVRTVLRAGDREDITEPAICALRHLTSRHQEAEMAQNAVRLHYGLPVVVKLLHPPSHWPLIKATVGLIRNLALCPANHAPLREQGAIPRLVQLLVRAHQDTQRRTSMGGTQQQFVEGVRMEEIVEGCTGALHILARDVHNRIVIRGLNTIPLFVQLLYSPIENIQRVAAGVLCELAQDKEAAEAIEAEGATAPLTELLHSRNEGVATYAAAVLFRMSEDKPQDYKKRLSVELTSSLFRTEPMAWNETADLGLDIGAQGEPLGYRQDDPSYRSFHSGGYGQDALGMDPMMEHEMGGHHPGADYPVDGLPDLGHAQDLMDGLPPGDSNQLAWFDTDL


Target: T1, B-cat-Halo
Assay: cell-based or functional assay

NanoBRET Abs IC50 [µM]	Binder
21.6	Ac-[αAllylPro]D[hLeu][B5(3)]DDAAFN[PyrS2][3Thi][Bta]H-NH2 (staple 1-4, 4-11) [I-788]
18.7	Ac-[αAllylPro]D[tBuAla][B5(13)]DDAAFN[PyrS2][2Thi][Bta]H-NH2 (staple 1-4, 4-11) [I-779]

Target: T2, B-cat-Halo
Assay: cell-based or functional assay

NanoBRET Abs IC50 [µM]	Binder
16.1	Ac-[αAllylPro]D[Cha][B5(4)]DDAAFT[PyrS2″][Phe(2-Cl)][Bta][Thr(ol)] (staple 1-4, 4-11) [I-1312]
> 20	Ac-[αAllylPro]D[tBuAla][B5(4)]DDAAFN[PyrS2″][Phe(2-CONH2)][Bta]Q-NH2 (staple 1-4, 4-11) [I-1314]
6.8	Ac-[αAllylPro]D[tBuAla][B5(4)]DDAAFF[PyrS2″][2cbmF][Bta]Q-NH2 (staple 1-4, 4-11) [I-1316]
11.7	Ac-[αAllylPro]D[tBuAla][B5(4)]DDAAFN[PyrS2″][Phe(2-Br)][Bta]Q-NH2 (staple 1-4, 4-11) [I-1323]
51.4	Ac-[αAllylPro]D[tBuAla][B5(4)]DD[Lys(iPr)]AFL[PyrS2″][Phe(2-Cl)][Bta][Thr(ol)] (staple 1-4, 4-11) [I-1313]
5.7	[αAllylPro]D[tBuAla][B5(4)]DDAAFF[PyrS2″][Phe(2-Br)][Bta]Q-NH2 (staple 1-4, 4-11) [I-1325]
7	[αAllylPro]D[tBuAla][B5(4)]DDAAFL[PyrS2″][Phe(2-OMe)][Bta]Q-NH2 (staple 1-4, 4-11) [I-1327]
10.9	Ac-[αAllylPro]D[tBuAla][B5(4)]DDAAFL[PyrS2″][Phe(2-F)][Bta]Q-NH2 (staple 1-4, 4-11) [I-1321]
35	[αAllylPro]D[tBuAla][B5]DDAAFN[PyrS2][Cha][Bta]Q-NH2 (staple 1-4, 4-11) [I-1329]
26.2	Ac-[αAllylPro]D[tBuAla][B5(4)]DDAAFN[PyrS2″][Phe(2-F)][Bta]Q-NH2 (staple 1-4, 4-11) [I-1320]
9.7	Ac-[αAllylPro]D[tBuAla][B5(4)]DDAAFN[PyrS2″][Phe(2-CF3)][Bta]Q-NH2 (staple 1-4, 4-11) [I-1317]
5.8	[αAllylPro]D[tBuAla][B5(4)]DDAAFL[PyrS2″][Phe(2-Br)][Bta]Q-NH2 (staple 1-4, 4-11) [I-1324]
5.4	[αAllylPro]D[tBuAla][B5(4)]DDAAFF[PyrS2″][Phe(2-OMe)][Bta]Q-NH2 (staple 1-4, 4-11) [I-1328]
6.2	[αAllylPro]D[tBuAla][B5(4)]DDAAFF[PyrS2″][Phe(2-Me)][Bta]Q-NH2 (staple 1-4, 4-11) [I-1326]
9.1	Ac-[αAllylPro]D[tBuAla][B5(4)]DDAAFF[PyrS2″][Phe(2-F)][Bta]Q-NH2 (staple 1-4, 4-11) [I-1322]
7.2	Ac-[αAllylPro]D[tBuAla][B5(4)]DDAAFL[PyrS2″][2cbmF][Bta]Q-NH2 (staple 1-4, 4-11) [I-1315]
